Source: article PMC3902929 (Nucleic Acids Research, 2013)

Biological target: the molecule itself
Assay: crystal structure

B1: Clostridium thermocellum polynucleotide kinase (CthPnk) mutant D38N (enzyme, UniProt A3DJ38 1-170, looked up)
chain: MKLTIPELSLVVLIGSSGSGKSTFAKKHFKPTEVISSNFCRGLVSDDENDQTVTGAAFDVLHYIVSKRLQLGKLTVVDATNVQESARKPLIEIAKDYHCFPVAVVFNLPEKVCQERNKNRTDRQVEEYVIRKHTQQMKKSIKGLQREGFRYVYILNSPEEVEEVVFERQP
binding result: binds
